Source: patent publication EP2974737A1 (Ablynx N.V., dated 2016)

How the values were obtained:
Assay in all cases: SPR, interference factor immobilized; % of Fig. 9 reference
[1] = target: T1, purified interference factor(s) from Donor A (human)
T1 construct: also called interference in serum from Donor A

[2] = target: T2, purified interference factor(s) from Donor B (human)
T2 construct: the text names the donors 8, 19 and 30; also called interference in serum from Donor B

[3] = target: T3, purified interference factor(s) from Donor C (human)
T3 construct: the text names the donors 8, 19 and 30; also called interference in serum from Donor C

Binder | interference binding, % of Reference Sequence [1] [%] | interference binding, % of Reference Sequence [2] [%] | interference binding, % of Reference Sequence [3] [%]
SEQ ID NO: 42 (VHH) EVQLVESGGGLVQPGGSLRLSCAASGRTFSYNPMGWFRQAPGKGRELVAAISRTGGSTYYPDSVEGRFTISRDNAKRMVYLQMNSLRAEDTAVYYCAAAGVRAEDGRVRTLPSEYTFWGQGTQVTVSSAAAEVQLVESGGGLVQPGGSLRLSCAASGRTFSYNPMGWFRQAPGKGRELVAAISRTGGSTYYPDSVEGRFTISRDNAKRMVYLQMNSLRAEDTAVYYCAAAGVRAEDGRVRTLPSEYTFWGQGTQVTVSSA | 1 | 4 | 
SEQ ID NO: 47 (VHH) VHH: EVQLVESGGGLVQPGGSLRLSCAASGSVFKINVMAWYRQAPGKGRELVAGIISGGSTSYADSVKGRFTISRDNAKNTLYLQMNSLRPEDTAVYYCAFITTESDYDLGRRYWGQGTLVTVSS | 1 |  | 
SEQ ID NO: 43 (VHH) DVQLVESGGGLVQPGGSLRLSCAASGFILDYYAIGWFRQAPGKEREGVLCIDASDDITYYADSVKGRFTISRDNSKNTVYLQMNSLRPEDTAVYYCATPIGLSSSCLLEYDYDYWGQGTLVTVSSGGGGSGGGSEVQLLESGGGLVQPGGSLRLSCAASGFTFRSFGMSWVRQAPGKGPEWVSSISGSGSDTLYADSVKGRFTISRDNSKNTLYLQMNSLRPEDTAVYYCTIGGSLSRSSQGTLVTVSSA | 3 | 20 | 
SEQ ID NO: 38 (VHH) EVQLVESGGGLVQPGGSLRLSCAASGFTFSSYAMSWVRQAPGKGLEWVSGIKSSGDSTRYAGSVKGRFTISRDNAKNTLYLQMNSLRPEDTAVYYCAKSRVSRTGLYTYDNRGQGTLVTVSSGGGGSGGGGSGGGGSGGGGSEVQLVESGGGLVQPGGSLRLSCAASGRTFNNYAMGWFRQAPGKEREFVAAITRSGVRSGVSAIYGDSVKDRFTISRDNAKNTLYLQMNSLRPEDTAVYYCAASAIGSGALRRFEYDYSGQGTLVTVSSA | 9 | 25 | 7
SEQ ID NO: 65 (VHH) VHH: EVQLVESGGGLVQAGGSLRLSCAASRSIGRLDRMGWYRHRPGEPRELVATITGGSSINYGDSVKGRFTISIDNSKNTVYLQMNSLRPEDTAVYYCNFNKYVTSRDTWGQGTLVTVSS | 73 | 121 | 64
SEQ ID NO: 73 (VHH) VHH: EVQLVESGGGLVQPGGSLRLSCAASRSIGRLDRMGWYRHRPGEPRELVATITGGSSINYGDSVKGRFTISIDNSKNTVYLQMNSLRPEDTAVYYCNFNKYVTSRDTWGQGTLVTVGG | 6 | 8 | 9
SEQ ID NO: 75 (VHH) VHH: EVQLVESGGGLVQPGGSLRLSCAASRSIGRLDRMGWYRHRPGEPRELVATITGGSSINYGDSVKGRFTISIDNSKNTVYLQMNSLRPEDTAVYYCNFNKYVTSRDTWGQGTLVTVSS | 1 | 11 | 16
SEQ ID NO: 72 (VHH) VHH: EVQLVESGGGLVQPGGSLRLSCAASRSIGRLDRMGWYRHRPGEPRELVATITGGSSINYGDSVKGRFTISIDNSKNTVYLQMNSLRPEDTAVYYCNFNKYVTSRDTWGQGTLVTVGG | 70 | 47 | 56
SEQ ID NO: 69 (VHH) VHH: EVQLVESGGGLVQPGGSLRLSCAASRSIGRLDRMGWYRHRPGEPRELVATITGGSSINYGDSVKGRFTISIDNSKNTVYLQMNSLRPEDTAVYYCNFNKYVTSRDTWGQGTQVTVSS | 80 | 120 | 84
SEQ ID NO: 68 (VHH) VHH: EVQLVESGGGLVQAGGSLRLSCAASRSIGRLDRMGWYRHRPGEPRELVATITGGSSINYGDSVKGRFTISIDNSKNTVYLQMNSLRPEDTAVYYCNFNKYVTSRDTWGQGTQVTVSS | 38 | 115 | 49
SEQ ID NO: 70 (VHH) VHH: EVQLVESGGGLVQPGGSLRLSCAASRSIGRLDRMGWYRHRPGEPRELVATITGGSSINYGDSVKGRFTISIDNSKNTVYLQMNSLRPEDTAVYYCNFNKYVTSRDTWGQGTLVQVSS | 90 | 105 | 98
SEQ ID NO: 74 (VHH) VHH: EVQLVESGGGLVQPGGSLRLSCAASRSIGRLDRMGWYRHRPGEPRELVATITGGSSINYGDSVKGRFTISIDNSKNTVYLQMNSLRPEDTAVYYCNFNKYVTSRDTWGQGTLVTVSS | 4 | 41 | 33
SEQ ID NO: 71 (VHH) VHH: EVQLVESGGGLVQPGGSLRLSCAASRSIGRLDRMGWYRHRPGEPRELVATITGGSSINYGDSVKGRFTISIDNSKNTVYLQMNSLRPEDTAVYYCNFNKYVTSRDTWGQGTLVTVSG | 88 | 105 | 87
SEQ ID NO: 66 (VHH) VHH: EVQLVESGGGSVQPGGSLRLSCAASRSIGRLDRMGWYRHRPGEPRELVATITGGSSINYGDSVKGRFTISIDNSKNTVYLQMNSLRPEDTAVYYCNFNKYVTSRDTWGQGTLVTVSS | 81 | 29 | 84
SEQ ID NO: 67 (VHH) VHH: EVQLVESGGGLVQPGGSLRLSCAASRSIGRLDRMGWYRHRPGEPRELVATITGGSSINYGDSVKGRFTISIDNSKNTVYLQMNSLKPEDTAVYYCNFNKYVTSRDTWGQGTLVTVSS | 102 | 117 | 96

Second part, the binder after the results:

interference binding, % of Reference Sequence [1] [%] | interference binding, % of Reference Sequence [2] [%] | interference binding, % of Reference Sequence [3] [%] | Binder
94 | 50 | 89 | SEQ ID NO: 81 (VHH) VHH: EVQLVESGGGVVQPGGSLRLSCAASRSIGRLDRMGWYRHRPGEPRELVATITGGSSINYGDSVKGRFTISIDNSKNTVYLQMNSLRPEDTAVYYCNFNKYVTSRDTWGQGTLVTVSS
2 | 17 | 20 | SEQ ID NO: 76 (VHH) VHH: EVQLVESGGGLVQPGGSLRLSCAASRSIGRLDRMGWYRHRPGEPRELVATITGGSSINYGDSVKGRFTISIDNSKNTVYLQMNSLRPEDTAVYYCNFNKYVTSRDTWGQGTLVTVSS
65 | 5 | 58 | SEQ ID NO: 80 (VHH) VHH: EVQLVESGGGLVQPGGSLRLSCAASRSIGRLDRMGWYRHRPGEPRELVATITGGSSINYGDSVKGRFTISIDNSKNTVYLQMNSLRPEDTAVYYCNFNKYVTSRDTWGQGTLVQVGG
1 | 17 | 13 | SEQ ID NO: 79 (VHH) VHH: EVQLVESGGGLVQPGGSLRLSCAASRSIGRLDRMGWYRHRPGEPRELVATITGGSSINYGDSVKGRFTISIDNSKNTVYLQMNSLRPEDTAVYYCNFNKYVTSRDTWGQGTLVTVSS
96 | 80 | 100 | SEQ ID NO: 82 (VHH) VHH: EVQLVESGGGLVQPGGSLRLSCAASRSIGRLDRMGWYRHRPGEPRELVATITGGSSINYGDSVKGRFTISIDNSKNTVYLQMNSLRAEDTAVYYCNFNKYVTSRDTWGQGTLVTVSS
56 | 73 | 61 | SEQ ID NO: 83 (VHH) VHH: EVQLVESGGGLVQPGGSLRLSCAASRSIGRLDRMGWYRHRPGEPRELVATITGGSSINYGDSVKGRFTISIDNSKNTVYLQMNSLRPEDAAVYYCNFNKYVTSRDTWGQGTLVTVSS
84 | 50 | 83 | SEQ ID NO: 84 (VHH) VHH: EVQLVESGGGLVQPGGSLRLSCAASRSIGRLDRMGWYRHRPGEPRELVATITGGSSINYGDSVKGRFTISIDNSKNTVYLQMNSLRPEDTAVYYCNFNKYVTSRDTWGQGTLVTVGS
96 | 96 | 100 | SEQ ID NO: 78 (VHH) VHH: EVQLVESGGGLVRPGGSLRLSCAASRSIGRLDRMGWYRHRPGEPRELVATITGGSSINYGDSVKGRFTISIDNSKNTVYLQMNSLRPEDTAVYYCNFNKYVTSRDTWGQGTLVTVSS
2 | 12 | 13 | SEQ ID NO: 77 (VHH) VHH: EVQLVESGGGLVQPGGSLRLSCAASRSIGRLDRMGWYRHRPGEPRELVATITGGSSINYGDSVKGRFTISIDNSKNTVYLQMNSLRPEDTAVYYCNFNKYVTSRDTWGQGTLVTVSS
